In US8822407B2, “Preparation of conjugates comprising adenine derivatives and allergenic proteins and their use for specific immunotherapy of allengenic diseases” (Universita' Degli Studi di Firenze, priority 2010, dated 2014):

What was measured:
TLR8 = target: T1, TLR8 (Homo sapiens, UniProt Q9NR97); test: TLR8-transfected HEK293 cells, NF-kB luciferase reporter; assay type: cell-based; details: R-848 2 μg/ml; data not shown
T1 construct: expressed in transfected cells; host or cells: HEK293 (transient Nucleofection, Amaxa)
T1 sequence (Q9NR97 27-1041): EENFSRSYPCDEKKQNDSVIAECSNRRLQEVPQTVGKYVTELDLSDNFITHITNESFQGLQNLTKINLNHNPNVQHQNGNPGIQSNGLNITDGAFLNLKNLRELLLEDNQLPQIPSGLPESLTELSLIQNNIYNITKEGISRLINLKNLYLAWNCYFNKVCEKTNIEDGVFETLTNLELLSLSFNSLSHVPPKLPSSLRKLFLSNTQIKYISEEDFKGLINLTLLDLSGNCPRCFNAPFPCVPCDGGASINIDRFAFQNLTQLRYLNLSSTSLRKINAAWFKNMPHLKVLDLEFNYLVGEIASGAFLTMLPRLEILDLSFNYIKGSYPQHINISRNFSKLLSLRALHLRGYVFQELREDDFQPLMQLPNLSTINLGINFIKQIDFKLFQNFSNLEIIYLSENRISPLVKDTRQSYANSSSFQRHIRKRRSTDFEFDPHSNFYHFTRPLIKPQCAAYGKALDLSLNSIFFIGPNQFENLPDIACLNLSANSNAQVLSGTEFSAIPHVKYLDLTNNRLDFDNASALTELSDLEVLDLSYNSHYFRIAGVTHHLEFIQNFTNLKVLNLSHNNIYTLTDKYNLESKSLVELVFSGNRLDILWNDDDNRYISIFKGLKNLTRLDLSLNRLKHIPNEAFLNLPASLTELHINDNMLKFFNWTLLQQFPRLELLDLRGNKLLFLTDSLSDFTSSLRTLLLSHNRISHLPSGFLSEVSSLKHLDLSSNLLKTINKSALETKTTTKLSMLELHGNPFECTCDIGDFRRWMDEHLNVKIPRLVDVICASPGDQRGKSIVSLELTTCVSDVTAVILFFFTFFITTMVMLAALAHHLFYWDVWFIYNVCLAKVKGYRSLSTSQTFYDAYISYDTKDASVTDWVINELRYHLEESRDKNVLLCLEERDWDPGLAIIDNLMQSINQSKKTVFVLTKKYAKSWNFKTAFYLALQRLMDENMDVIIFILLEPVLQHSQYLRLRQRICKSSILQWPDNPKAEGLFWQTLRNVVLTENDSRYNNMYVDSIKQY
Procedure: HEK293 cells are detached by trypsin from the plastic surface of the culture bottle, extensively washed with calcium and magnesium-free PBS, counted and adjusted at the concentration 1×10^6 cells/tube in polypropylene V-bottomed tubes. After the final wash, the cells are pelleted and 100 μl transfection buffer (Amaxa) is added together with […], TLR7, TLR8 or TLR9-encoding and ELAM-1 promoter NF-kB luciferase reporter plasmids. The mixture thus obtained is transferred in special cuvettes and transient transfection is obtained in a special apparatus which is able to directly introduce genetic material into the nucleus (Nucleofection®, Amaxa GmbH). The cells are then recovered and cultured at 1×10^5/ml in 48-flat bottomed plates in E-MEM medium plus 5% foetal calf serum for 18 hrs. […] Finally the luciferase activity is measured in the cellular lysates by a commercial kit (Promega).

purified B cells = test: B cell activation (tritiated thymidine incorporation); assay type: cell-based, human; details: for Stimulation index (mean ± SE): B cell proliferation
Procedure: Circulating mononuclear cells (MNC) are isolated by Ficoll-Hypaque density gradient from buffy coats of healthy donors (Servizio Immunotrasfusionale e terapie cellulari, Azienda Ospedaliero Universitaria Pediatrica A. Meyer, Firenze). 200×10^6 MNC are then separated using the commercial CD19 isolation kit (Miltenyi) by the addition of 400 μl iron microbead-bound anti-CD19 monoclonal antibody followed by magnetic separation on LS column. 20×10^6 B cells are isolated by positive selection and are extensively washed by the use of calcium- and magnesium-free PBS and cultured in triplicates at the concentration of 1×10^6/ml/well in complete medium plus 10% foetal calf serum in 96-U plates. […] Plates are incubated in humidified atmosphere at 37° C. for 72 hrs and at the end 0.5 μCi tritiated thymidine is added to each well for further 16 hrs. The incorporated radioactivity is measured as already described in step (f) of Example 4.

[1] = test system: NF-κB p50 subunit in purified CD14+ cells; test: NF-κB activation: nuclear p50 in purified CD14+ cells; assay type: cell-based, human; details: 2 hrs, allergens and conjugates 10 μg/ml, R-848 2 μg/ml
Procedure: The tubes are then incubated for 2 hrs in 5% CO2 humidified atmosphere at 37° C. and then washed with 10 ml PBS, centrifuged at 1500 rpm repeating the treatment thrice and the cellular pellet finally dried by the use of a micropipette and stored at −80° C. up to the assay. […] Two different protein amounts (0.5 and 2 μg) were incubated in 96w plates coated by the immobilized oligonucleotide containing the activated NF-κB consensus site (5′-[…]-3′), followed by the incubation with an antibody recognizing an epitope of the NF-κB p50 subunit. An HRP-conjugated secondary antibody was added to single wells and the colorimetric read-out was quantified by spectrophotometry. Values are reported as Optical Density. […] For the specificity of the assay, a wild-type consensus oligonucleotide was used as a competitor for NF-κB binding.

Row | Molecule | NF-κB expression in TLR8-transfected HEK293 cells (TLR8) | proliferation of purified B lymphocytes (in words) (purified B cells; thymidine incorporation) | p50 nuclear expression (NF-κB activation) [1] | Stimulation index (mean ± SE) (purified B cells; concentration 0.5 μg/ml) | Stimulation index (mean ± SE) (purified B cells; concentration 2.5 μg/ml) | Stimulation index (mean ± SE) (purified B cells; concentration 10 μg/ml)
1 | CCOCc1nc2c(N)nc3ccccc3c2n1CC(C)(C)O [Conj R-848, reference compound] | able to induce NF-κB expression | high levels of incorporation of radioactive thymidine | – | – | – | –
2 | Nc1nc(SCCCC(=O)ON2C(=O)CCC2=O)nc2c1nc(O)n2Cc1ccccc1 [SA-26E, 4-(6-Amino-9-benzyl-8-hydroxy-9H-purin-2-ylsulfanyl)-butyric acid 2,5-dioxo-pyrrolidin-1-yl ester] | – | – | completely inactive | – | – | –
3 | nDer p2: purified natural allergen Der p2, major allergen from the house dust mite Dermatophagoides pteronyssinus (protein, UniProt P49278 18-146, looked up, natural purified, purified natural allergen Der p2, major allergen from the house dust mite Dermatophagoides pteronyssinus) Mite group 2 allergen Der p 2: DQVDVKDCANHEIKKVLVPGCHGSEPCIIHRGKPFQLEAVFEANQNTKTAKIEIKASIDGLEVDVPGIDPNACHYMKCPLVKGQQYDIKYTWNVPKIAPKSENVVVTVKVMGDDGVLACAIATHAKIRD | – | – | inactive | 1.6 ± 0.4 | 1.7 ± 0.2 | 1.7 ± 0.1
